# Data reported in the RNAGym collection of RNA variant scans (doi:10.1073/pnas.2313332121).
# Variants at the floor of the assay were thinned out.
# B1: TPR 5TU (parent)
# chain: GGAUCUUCUCGAUCUAACAAAAAAGACAAAUCUGCCACAAAGCUUGAGAGCAUCUUCGGAUGCAGAGGCGGCAGCCUUCGGUGGCGCGAUAGCGCCAACGUUCUCAACUAUGACACGCAAAACGCGUGCUCCGUUGAAUGGAGUUUAUCAUG
# Variants of: B1
# Assay: polymerase ribozyme fitness, log enrichment relative to wild type (log ratio); higher = more active; in vitro selection for triplet polymerase activity
# In short: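 The heterodimeric triplet polymerase ribozyme's subunits were each mutagenized into PCR-built libraries and transcribed. Every library was selected once, in triplicate, by annealing with a biotinylated primer, the partner subunit and triplets, incubating frozen at −7 °C, gel-excising extended constructs, capturing on streptavidin beads and running RT-PCR. Input and output libraries were Illumina-sequenced, with genotypes kept only at ≥10 input reads and ≥1 read per output. Fitness, from inverse-variance-weighted replicate averages, is the base-2 logarithm of genotype enrichment over wild-type enrichment.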
row,Variant,polymerase ribozyme fitness (log ratio)
1,C8A A49G A60U C75U U78C C85G C116G G140A,≤ -4.2
2,U6A U139C,-3.88
3,U7A G11A C32U C35G A41U U55A C87G C95A C114U,≤ -4.2
4,U6A C125G,-0.431
5,C8G A23C A30U G59A C95A A119U G141C,≤ -4.2
6,C8G A39C U77C U104G A115C,≤ -4.2
7,U7C U53A C85U,-3.46
8,C8G G81C G86A C132A,≤ -4.2
9,U6G A12C C35G A60C C75G A110G,≤ -4.2
10,U6C C35G A66G C96U U109A G126U,≤ -4.2
11,C8A A29C A37C A47U A119G,≤ -4.2
12,C8U A21U A28C A52U G94U C95G A97C A122U G126U G136A,≤ -4.2
13,C8A C87A C99U,≤ -4.2
14,C8A C85A C87A G124A,≤ -4.2
15,U6G C57A U61A G65A A121U G126A,-3.12
16,U7A C32G U33C C87A C96U U101C C116A U145G U146C,≤ -4.2
17,U7C C8G A20U U55A A66U G88A C99G G143U,≤ -4.2
18,U6A U33A U55G C57U C79G G92A C131U,≤ -4.2
19,C8A C38U C57U C79G C96G,≤ -4.2
20,C8A A17G A21U C38U G86A C99G G126U U139G,≤ -4.2
21,C8A A24U G71A G84A G143C,≤ -4.2
22,C8G G83A C99U,≤ -4.2
23,C8A G50U C76U G83A C116G C131A U145C,≤ -4.2
24,C8A G94C,-3.7

row,Variant,polymerase ribozyme fitness (log ratio)
1,U6A C54U C85G A115C,-2.97
2,C8A C76A G88U G94U C132G U139C,≤ -4.2
3,U6G A20C C38U C57U U61A C76G G94C A97G U145G,≤ -4.2
4,C8G G80C,≤ -4.2
5,C8A A19C C72A C95A C96G C131U G136C,≤ -4.2
6,U6A G81C G94U A113U C114U U151C,≤ -4.2
7,C8A U13G A30U U82A U101G,≤ -4.2
8,U7G A20C C38A G83A,-3.16
9,C8G U31A U33G U53G U55G G94A G126C,≤ -4.2
10,C8A C96A A110U U111G,≤ -4.2
11,C8G A16C C93U A137G,≤ -4.2
12,C8G C131U U144G,≤ -4.2
13,C8A A17C G62A G68A C85U U111G,≤ -4.2
14,U6G C96A A122U,-0.578
15,U7A A29C A41U G94C,≤ -4.2
16,U7G U55A,-3.28
17,U7G C14G U55G G58U G80C A107G C118U G140C,≤ -4.2
18,C8U C10U C32G C35G C95U G136A,≤ -4.2
19,U6G U53A G80U,≤ -4.2
20,U6A C69U,-1.1
21,U7A C93G,≤ -4.2
22,U7A C93U,-3.98
23,U6A C57U A60U C99U U111G G126U C129G,≤ -4.2
24,C8U C32A G58C C93G G94U C95U G117U A138U,≤ -4.2

row,Variant,polymerase ribozyme fitness (log ratio)
1,U6C C38U A121U U127A G128U,-4.07
2,C8A U15G U55A A73U A91G G140A,≤ -4.2
3,C8G A29U,-4.04
4,U7C C35U C87G U104G,-4.04
5,U6G A39G A49C,≤ -4.2
6,U6G A40C U144A,0.287
7,U6G A17C A37G A52C C54U C96A A122U U134C,≤ -4.2
8,C8A C57A G74A C118U,≤ -4.2
9,C8A G86A C87U A138U,≤ -4.2
10,C8G A47C G81C G84C G86U,≤ -4.2
11,U6G A28U C38U A66G C95G A120U A150U,≤ -4.2
12,C8A A19C C35G A52C C87G,≤ -4.2
13,C8U C51A A60U C87U,≤ -4.2
14,U6G A52C C96G A115G,-3.74
15,U6C C76G G124U G128U,≤ -4.2
16,C8A G86U,-3.72
17,U6G U15A C95G C96U U101G C103A C131A C149A,≤ -4.2
18,C8A U15C C75A U109C,≤ -4.2
19,C8U A20C G50A U82G C93U C95U A142G,≤ -4.2
20,C8U A16C A19U G59U A60G C93U,≤ -4.2
21,U7A G62C,≤ -4.2
22,C8A G83C C85G G140C A150C,≤ -4.2
23,C8A A12C G42C C72U G86A,≤ -4.2
24,U7C G50U,-2.42

row,Variant,polymerase ribozyme fitness (log ratio)
1,U7A C14G U15G G88A,-3.61
2,C8A U15A A19U A28U A30U C38A A39C A40U G59U C99G A107U C114U,≤ -4.2
3,U6C C10A C14G A49C C57U A91C C114U,≤ -4.2
4,C8A U15G G59C C114U A138G,≤ -4.2
5,C8A G70C A89G G94C C116A A137G,≤ -4.2
6,C8G U56G A91G,≤ -4.2
7,U6G U15A A20G C87U,-0.616
8,U6C A26U C35A A73G C75U C93A C116A A138C,≤ -4.2
9,U6G C38U C43U A91U C95G U102G,≤ -4.2
10,C8G A21C U77A G92A C118A G136U,≤ -4.2
11,U7A A16U G58C G71C C93U A115C U134C,≤ -4.2
12,C8G A16U C36G,≤ -4.2
13,U6G A16G A24C U145C,≤ -4.2
14,U6C C27G C32A U53A A142U C149G,≤ -4.2
15,U6G A21U C93U U127G,-3.85
16,C8G G11A A19C G50A C69A G70A C93U,≤ -4.2
17,U6G C14A C79A U145C,≤ -4.2
18,U6G A73G C87U G136U,-2.92
19,U6G A26U A37C G50C U53A C57A U82G C103G,≤ -4.2
20,U6C A49U C63G,-2.48
21,U7G A21U,-2.97
22,U7A C35A A39U G50A G92U C95A U130A U135A,≤ -4.2
23,U7G U55C C99U,≤ -4.2
24,C8A A12C,-3.07

row,Variant,polymerase ribozyme fitness (log ratio)
1,U6G A16G C85U C125A,-1.05
2,U7G C18U A30U G59U U77A G83C A138C,≤ -4.2
3,U6C A47U,-0.576
4,U6G A142U,-0.0461
5,U6G A98U,-0.985
6,U7A C63U A73G A120G U146A,≤ -4.2
7,C8G A24C G65U C87A C95U C105G,≤ -4.2
8,U7G U56A G59C U78C,-2.83
9,U6A U15G G46C C76U C93G,≤ -4.2
10,U7A A40C C54A G59C C87U,≤ -4.2
11,U6C A22U U31G C93A C114G,≤ -4.2
12,U7A C32G A66C G68A C87A G128U G136C,≤ -4.2
13,U6G A23C G88C A97U,≤ -4.2
14,U6G U45C C76A C93G C103A,≤ -4.2
15,U6A A26U U53G C103A U109C,≤ -4.2
16,U7C C14U U53A C96U U104C C116A G124U U135G,≤ -4.2
17,U7A G11U G50A A64G G68A C72U C87U A115U A122G C149A U151A,≤ -4.2
18,C8U A39U G48U U134A,≤ -4.2
19,U6G G46U G88C U134A A138G,≤ -4.2
20,U6A C10A C27G G46C C69A C93U G94C A97C,≤ -4.2
21,U6C U45A,-3.75
22,U7A A29G C85A C114A A121G U134C,≤ -4.2
23,C8A C85U C116U G141A,≤ -4.2
24,U7G G50C A52C G84A C114U A138G,≤ -4.2

row,Variant,polymerase ribozyme fitness (log ratio)
1,U7G U31A C57U G94C U135C G140U U148C,≤ -4.2
2,C8A G67U U77A G83U C87G U134A G141C U144G,≤ -4.2
3,U7A A22U U44A C51U G67A G94C C99U G141C,≤ -4.2
4,U6C U55G,-0.825
5,U6G C93A A98G,-1.61
6,U7G U13A A17U A98U A107C U146C,≤ -4.2
7,U6A A142C,-0.741
8,U6G G11A A19C A21C A24G C36G U56A U82A A142C,≤ -4.2
9,U7A A64U G74A C79A C85A G94U U130G,≤ -4.2
10,C8A A20C A22G G42C U53A C95U,≤ -4.2
11,C8A C79U A120C C125G A142U U146C,≤ -4.2
12,C8U A26G U56A C76G C105U A106C C123U,≤ -4.2
13,C8U A22U C51U G62A C93G C103A C105G,≤ -4.2
14,C8G A22U C35G C69G G70C G92A,≤ -4.2
15,U6A U9G C14G G83C G112U G136C,≤ -4.2
16,U6G A16U C38U G83C U139A G141A,≤ -4.2
17,U7A U9G,-3.64
18,U7C C8U U45A G68C C87G A91C,≤ -4.2
19,C8G A39U G46U G68C C79U G83A U102A,≤ -4.2
20,U6A A24U A60G,0.116
21,U7A C38U G65A A107G G136U U146C,≤ -4.2
22,C8A,-2.84
23,C8U,-2.39
24,C8G,-2.95

row,Variant,polymerase ribozyme fitness (log ratio)
1,C8A U9C C18A A19G G58U G84A U144C A147C,≤ -4.2
2,C8A U9G A12C A29U A30U G88U C93A A107G,≤ -4.2
3,C8G A91U A142U,-3.92
4,U7C G50A G58A G68A A97C G141C U146A,≤ -4.2
5,C8G A29G G50U C85U C125A,≤ -4.2
6,C8G A24U A26G A52C C93G,≤ -4.2
7,U6C C14A A49U G50U A52G C93G C99G,≤ -4.2
8,U6A C108U U134C,-3.33
9,U6A C85U C95A A120G,-1.78
10,U6A A23U G83A C105U C108A,≤ -4.2
11,U6C C36A G67C C85U G124C C132U,≤ -4.2
12,U7G A17C A39C A91G C114G,≤ -4.2
13,C8G G70C G80A A91U U104C A120U,≤ -4.2
14,C8G A40U U53A C87A C108G,≤ -4.2
15,U7G C125U,-3.39
16,U6C A21U C85U,-0.501
17,U7A A17U G25C G88C C116A,≤ -4.2
18,U6G C57A U102G,-1.76
19,C8A C54U,-3.64
20,U6G A12U,-0.722
21,C8U A40U,-3.42
22,U7G C32U C38U U55G C57U U61A G62A G88A U146C,≤ -4.2
23,U6G A52G A106C C116A,-0.169
